Where no end group is shown, it is not given here. Side-chain parts run from the residue outwards. silicon chip = not defined here
Key:
[1] = biological target: Orai3-L2 (aa 111–161, mutation C118G) (human, UniProt Q9BRQ5 111-161, C118G, conjugated to amino-functionalized AFM cantilever tips via a flexible NHS-PEG18-acetal cross-linker); assay: AFM single-molecule force spectroscopy
[2] = biological target: Orai1-L2 (aa 136–186, mutation C143G) (human, UniProt Q96D31 136-186, C143G, conjugated to amino-functionalized AFM cantilever tips via a flexible NHS-PEG18-acetal cross-linker); assay: AFM single-molecule force spectroscopy
Sequence of Orai1-L2 (aa 136–186, mutation C143G) (Q96D31 136-186 C143G): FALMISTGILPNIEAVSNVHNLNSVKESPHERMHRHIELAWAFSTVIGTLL

| koff [1] [s⁻¹] | koff [2] [s⁻¹] | Binder |
| --- | --- | --- |
| 0.23 | 1.9 | SMQALSWRKLYLSRAKLKASSRC (added C-terminal cysteine for site-specific coupling; immobilized on silicon chips via NHS-PEG27-maleimide linkers) [Orai1-NT 70–91] |
| 0.09 | 0.13 | LYLSRAKLKASSRC([NHS‑PEG27‑maleimide-silicon chip]) (reading uncertain) [Orai1-NT 79–91] |

— PMC5787804 (2017)
